In publication PMC4550792:
Blank lines part the entries; values can stand above or below the substance they belong to.

Key:
Gαs-Rluc8 = Gαs-Rluc8 (UniProt P63092); assay: FRET or BRET; BRET in live HEK 293 cells transiently co-expressing Gαs-Rluc8 with Venus-Gγ2 or Venus-Gβ1 in the presence of hFSHR or hLHR; read every 0.5 s before and after injection of 10 nM hFSH or hCG; 96-well format
[1] = biological target: human luteinizing hormone receptor (wildtype) (human) (UniProt P22888)
hLHR-Rluc8 (human) = hLHR-Rluc8 (human) (UniProt P22888)

Sequence of UniProt P63092 (P63092 whole entry): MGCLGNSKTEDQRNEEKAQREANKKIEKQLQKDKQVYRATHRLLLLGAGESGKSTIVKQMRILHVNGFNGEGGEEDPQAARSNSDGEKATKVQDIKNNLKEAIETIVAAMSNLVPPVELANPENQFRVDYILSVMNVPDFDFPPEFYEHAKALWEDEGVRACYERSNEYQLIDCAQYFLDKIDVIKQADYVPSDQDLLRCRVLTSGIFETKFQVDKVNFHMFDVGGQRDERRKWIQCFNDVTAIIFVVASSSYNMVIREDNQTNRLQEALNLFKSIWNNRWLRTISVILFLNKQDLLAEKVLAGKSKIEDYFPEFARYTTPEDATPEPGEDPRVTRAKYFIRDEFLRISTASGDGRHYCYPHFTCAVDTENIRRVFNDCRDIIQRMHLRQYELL
Sequence of Venus-Gγ2 (P59768 whole entry): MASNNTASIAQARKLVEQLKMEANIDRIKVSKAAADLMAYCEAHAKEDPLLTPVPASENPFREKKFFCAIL

- TANGO assay (tTA-dependent firefly luciferase reporter in HTLA cells, 14–20 h with increasing hFSH); EC50 of hFSH (FSHR/AVPR2-CT chimera): 5.7 nM
Substance: β-arrestin 2-TEV fusion protein (from UniProt P32121 1-409) (natural protein)

- t1/2 of the hFSH-induced BRET decrease (with hFSHR) (Gαs-Rluc8): 16.8 s
Substance: Venus-Gγ2 (from UniProt P59768 1-71) (natural protein)

- cAMP accumulation, HTRF assay in HEK 293 cells expressing hLHR; EC50 of hCG [1]: 0.0019 nM
- cAMP production, BRET sensor CAMYEL in HEK 293 cells expressing hLHR; EC50 of hCG [1]: 0.0035 nM
- receptor internalization, decrease of BRET between hLHR-Rluc8 and the plasma membrane marker Venus-KRas in HEK 293 cells; EC50 of hCG (hLHR-Rluc8 (human)): 4.9 nM
Substance: human chorionic gonadotropin (from UniProt P01215 25-116; P0DN86 21-165) (ligand)
